First the molecules themselves.
B1: IL-22BP-Ig (Fc fusion)
chain: TQSTHESLKPQRVQFQSRNFHNILQWQPGRALTGNSSVYFVQYKIYGQRQWKNKEDCWGTQELSCDLTSETSDIQEPYYGRVRAASAGSYSEWSMTPRFTPWWETKIDPPVMNITQVNGSLLVILHAPNLPYRYQKEKNVSIEDYYELLYRVFIINNSLEKEQKVYEGAHRAVEIEALTPHSSYCVVAEIYQPMLDRRSQRSEERCVEIP
notes: Used as supernatant of transiently transfected HEK293 cells; it may begin with Met or Met Met; also called IL-TIFR-Ig; IL-22BP fusion protein; not shown: hinge, CH2 and CH3 domains of murine IgG3 isotype heavy chain, amplified from IgG3 anti-TNP hybridoma C3110
B2: recombinant human IL-TIF/IL-22 (ligand, UniProt Q9GZX6 34-179, looked up)
chain: APISSHCRLDKSNFQQPYITNRTFMLAKEASLADNNTDVRLIGEKLFHGVSMSERCYLMKQVLNFTLEEVLFPQSDRFQPYMQEVVPFLARLSNRLSTCHIEGDDLHIQRNVQKLKDTVKKLGESGEIKAIGELDLLFMSLRNACI
B3: IL-22R-Ig (Fc fusion, UniProt Q8N6P7 16-228, looked up)
chain: HAPEDPSDLLQHVKFQSSNFENILTWDSGPEGTPDTVYSIEYKTYGERDWVAKKGCQRITRKSCNLTVETGNLTELYYARVTAVSAGGRSATKMTDRFSSLQHTTLKPPDVTCISKVRSIQMIVHPTPTPIRAGDGHRLTLEDIFHDLFYHLELQVNRTYQMHLGGKQREYEFFGLTPDTEFLGTIMICVPTWAKESAPYMCRVKTLPDRTWT
notes: Used as supernatant of transiently transfected HEK293 cells; also called fusion protein of IL-22R and the IgG3 Fc fragment; not shown: IgG3 Fc fragment, made 'in similar fashion' to the murine IgG3 hinge-CH2-CH3 of IL-TIFR-Ig

One test has as its target T1, bovine serum albumin (bovine, UniProt P02769 25-607).
T1 construct: Negative control coating in the ELISA; also called BSA
In words: ELISA, coated plate, HEK293 supernatant, anti-Ig peroxidase detection. The protocol:
(§1) Assays were then carried out by coating polystyrene plates with either 0.083 mg/ml of recombinant human IL-TIF/IL-22, or […] bovine serum albumin, in 20 mm Tris. Glycine buffer containing 30 mm NaCl, pH 9.2, overnight, at 4° C. Following washing in PBS buffer plus Tween 20 (10⁻⁴) plates were blocked with PBS plus 1% BSA for two hours, and then 50 μl of supernatant from transiently transfected HEK293 cells was added. Plates were then incubated for 2 hours, at 37° C. Any bound fusion protein was detected, using murine anti-Ig polyclonal antibodies coupled to peroxidase. Detection was carried out using the peroxidase substrate “TMB”, or (3,3′,5, 5′-tetramethylbenzidine), and stopped by 20 μl H₂S0_{4.}

The test “IL-22BP-Ig” deals with B1. Kind of test: ELISA, IL-TIF/IL-22 coated on plate, HEK293 supernatant, anti-Ig peroxidase detection. The protocol: as §1

T1 sequence (P02769 25-607 limits assumed): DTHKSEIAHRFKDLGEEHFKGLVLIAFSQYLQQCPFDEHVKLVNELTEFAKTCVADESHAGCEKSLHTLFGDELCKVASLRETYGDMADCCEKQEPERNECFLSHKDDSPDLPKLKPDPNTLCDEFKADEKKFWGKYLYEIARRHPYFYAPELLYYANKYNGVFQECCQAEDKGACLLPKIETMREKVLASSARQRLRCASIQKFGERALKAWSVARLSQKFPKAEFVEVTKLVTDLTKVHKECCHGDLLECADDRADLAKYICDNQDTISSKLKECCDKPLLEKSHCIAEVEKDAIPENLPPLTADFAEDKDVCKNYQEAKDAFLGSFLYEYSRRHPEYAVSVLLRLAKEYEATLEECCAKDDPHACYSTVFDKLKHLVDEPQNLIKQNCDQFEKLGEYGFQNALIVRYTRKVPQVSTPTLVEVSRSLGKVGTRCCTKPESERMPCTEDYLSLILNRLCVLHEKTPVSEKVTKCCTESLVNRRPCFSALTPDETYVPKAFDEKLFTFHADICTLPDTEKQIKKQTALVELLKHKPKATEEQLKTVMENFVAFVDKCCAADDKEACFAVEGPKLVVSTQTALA

On to B1, for which the binding result with bovine serum albumin is given as “no binding”.
For B2, in the test with IL-22BP-Ig, the binding result is listed as “binds”.
Take B3: the binding result with bovine serum albumin was “no binding”.

(Values after US20040180399A1 (Pfizer, published 2004).)
